# Results reported in patent US20210332145A1 (SINGLE CELL TECHNOLOGY, published 2021).
# Changes are numbered by the printed parent chain.
# B1: SCT-Aa13(m/m) (antibody, V domains shown)
# VH: QVQLQQSDAELVKPGASVKISCKVSGYTFTDYTIHWMKQRPEQGLEWIGYIYPRDGSTKYNEKFKGKATLTADKSSSTAYMQLNSLTSEDSAVYFCARWDYEGFDYWGQGTTLTVSS
# VL: DIVMTQSPATLSVTPGDRVSLSCRASQSISDYLHWYQQKSHESPRLLIKYASQSISGIPSRFSGSGSGSDFTLSINSVEPEDVGVYYCQNGHSFPPTFGSGTKLEIK
# notes: Full IgG format: mouse IgG1 heavy chain constant region, mouse kappa light chain constant region
# B2: SCT-Aa09(m/m) (antibody, V domains shown)
# VH: B1 VH with Y32H, I51F, G56D, S57N, K74R
# VL: B1 VL with S30R
# notes: as for B1
# B3: SCT-Aa12(m/m) (antibody, V domains shown)
# VH: B1 VH with Y52F, R54S, E89D
# VL: B1 VL with H34N
# notes: as for B1
# B4: SCT-Aa01(m/m) (antibody, V domains shown)
# VH: DVQLQESGPGLVKPSQSLSLTCSVTGYSITSGYYWNWIRQFPGNKLEWMGYIRYDGSNNYNPSLKNRISITRDTSKNQFFLKLNSVTTEDTATYYCAPYDYDYAMDFWGQGTSVTVSS
# VL: DIQMTQSPASLSASVGETVTITCRASGNIHNYLAWYQQKQGKSPQLLVYNAKTLAHGVPSRFSGSGSGTQYSLKITSLQPEDFGTYYCQHFWSTPFTFGSGTKLEIK
# notes: as for B1
# B5: SCT-Aa05(m/m) (antibody, V domains shown)
# VH: EVKLLQSGGGLVQPGGSLKLSCAASGIDFSRYWMSWVRRAPGKGLEWIGEINPDSSTINYAPSLKDKFIISRDNAKNTLYLQMSKVRSEDTGLYYCASLYYDYEREYGMDYWGQGTSVTVSS
# VL: DIVMTQSQKFMSTSVGDRVSVTCKASQNVGTNVAWYQQKPGQSPKALIYSASYRFSGVPDRFTGSGSGTDFTLTISNVQSEDLAEYFCQQYNSYPYTFGGGTKLEIK
# notes: as for B1
# B6: SCT-Aa03(h/h) (antibody, V domains shown)
# VH: EVKLLQSGGGLVQPGGSLKLSCAASGIDFSRYWMSWVRRAPGKGLEWIGEINPDSSTINYAPSLKDKFIISRDNAKNTLYLQMSKVRSEDTALYYCASFYYDYDHAMDYWGQGTSVTVSS
# VL: B5 VL with V19F, Y96F, G100S
# notes: Full IgG format, chimeric: human IgG1 heavy chain constant region, human kappa light chain constant region
# B7: SCT-Aa03(m/m) (antibody, V domains shown)
# VH: B6 VH
# VL: B5 VL with V19F, Y96F, G100S
# notes: as for B1
# B8: SCT-Aa05(h/h) (antibody, V domains shown)
# VH: B5 VH
# VL: B5 VL
# notes: as for B6
# B9: SCT-Aa04(m/m) (antibody, V domains shown)
# VH: B5 VH with G92A, L99F, E104D, E106G, Y107A, G108A
# VL: B5 VL with F55Y
# notes: as for B1
# B10: SCT-Aa02(m/m) (antibody, V domains shown)
# VH: B5 VH with Y60S, K65E, G92A, E106D, G108A, T116A
# VL: B5 VL with N92H, Y96F
# notes: as for B1
# B11: SCT-Aa02(h/h) (antibody, V domains shown)
# VH: B5 VH with Y60S, K65E, G92A, E106D, G108A, T116A
# VL: B5 VL with N92H, Y96F
# notes: as for B6
# B12: SCT-Aa04(h/h) (antibody, V domains shown)
# VH: B5 VH with G92A, L99F, E104D, E106G, Y107A, G108A
# VL: B5 VL with F55Y
# notes: as for B6
# Key:
# [1] = target: T1, human BCMA with a His tag (ACROBiosystems, Catalog No.: BCA-H522y) (human); test: SPR, Biacore T200
# T1 construct: Bought His-tagged recombinant protein; also called huBCMA-His; Recombinant human BCMA
# T1 chain: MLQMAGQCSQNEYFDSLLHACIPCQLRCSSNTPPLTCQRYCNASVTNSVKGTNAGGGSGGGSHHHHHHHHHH
# Procedure: The binding affinity of select anti-BCMA was measured on a surface plasmon resonance (SPR) instrument, Biacore T200™, against human BCMA by a method known in the art.
# In experiments performed essentially as described above, a subset of anti-human BCMA antibodies of the present disclosure bind human BCMA with a His tag (ACROBiosystems, Beijing, China, Catalog No.: BCA-H522y, SEQ ID NO:2) with affinity shown in Table 6.
# [2] = target: T2, BCMA on cells (293T cells transfected with BCMA; H929, MM.1S and U266 cell lines expressing BCMA) (human, UniProt Q02223 1-184); test: flow cytometry, H929 cells
# T2 construct: H929, MM.1S and U266 carry the native protein; also called B-cell Maturation Antigen; TNFRSF17
# T2 sequence: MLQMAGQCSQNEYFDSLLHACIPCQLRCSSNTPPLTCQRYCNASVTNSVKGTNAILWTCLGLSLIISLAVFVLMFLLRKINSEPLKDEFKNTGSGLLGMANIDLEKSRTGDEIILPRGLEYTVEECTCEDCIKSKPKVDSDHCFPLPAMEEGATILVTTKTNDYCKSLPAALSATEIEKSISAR
# Procedure: A cell line expressing BCMA, H929, was used to assess binding by anti-BCMA antibodies on the native protein on the cell surface by flow cytometry according to the known art. A subset of anti-human BCMA antibodies were assayed for binding to H929 and the fraction of cells bound the labeled antibody above background defined by control is shown in Table 8.
# [3] = target: T2, BCMA on cells (293T cells transfected …); test: flow cytometry, H929 cells; remark: listed apart in the source
# [4] = target: T3, cyno BCMA with a His tag (ACROBiosystems, Catalog No.: BCA-052H7) (cyno); test: ELISA, plate-coated cyno BCMA-His
# T3 construct: Bought His-tagged recombinant protein
# T3 sequence (chain, as listed by the source limits assumed): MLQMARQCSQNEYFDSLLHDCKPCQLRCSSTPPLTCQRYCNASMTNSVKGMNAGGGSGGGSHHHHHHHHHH
# Procedure: (§1) The recombinantly expressed antibodies were used to assess binding activity to BCMA of different species origins by conventional ELISA according to the known art. Recombinant human BCMA, cyno BCMA, and mouse BCMA were coated onto ELISA plates to detect binding at serially diluted concentrations of the anti-BCMA antibody preparations.
# (§2) The ability for antibodies of the present disclosure to bind human BCMA was measured with an ELISA assay. For the BCMA binding assay, a 96-well plate (Nunc) is coated with human BCMA with a His tag (ACROBiosystems, Catalog No.: AC108P1-180611F2-Bulk, SEQ ID NO:2) at 0.2 μg/well overnight at 4° C. Wells are blocked for 2 h with blocking buffer (PBS containing 3% bovine serum albumin). Wells are washed three times with PBS containing 0.1% Tween-20. Anti-human BCMA antibodies of the present disclosure or control IgG (100 μL) is then added and incubated at room temperature for 1 h. After washing, the plate is incubated with 100 μL of goat anti-mouse IgG Fcγ Fragment Specific-HRP conjugate (Jackson ImmunoResearch) at room temperature for 1 h. The plates are washed and then incubated with 100 μL of 3,3′,5,5′-tetra-methylbenzidine. The absorbance at 450 nm is read on a microplate reader. The half maximal effective concentration (EC50) is calculated using GraphPad Prism 6 software.
# In experiments performed essentially as described above, anti-human BCMA antibodies of the present disclosure bind cyno BCMA with a His tag (ACROBiosystems, Beijing, China, Catalog No.: BCA-052H7, SEQ ID NO:110) with an EC50 values shown in Table 4.
# [5] = target: T1, human BCMA with a His tag …; test: ELISA, plate-coated human BCMA-His
# Procedure: as §1, §2
# In experiments performed essentially as described above, anti-human BCMA antibodies of the present disclosure bind human BCMA with a His tag (ACROBiosystems, Beijing, China, Catalog No.: BCA-H522y, SEQ ID NO:2) with an EC50 values shown in Table 3.
# [6] = target: T4, mouse BCMA with a His tag (ACROBiosystems, Catalog No.: BCA-M52H3) (mouse); test: ELISA, plate-coated mouse BCMA-His
# T4 construct: Bought His-tagged recombinant protein
# T4 chain: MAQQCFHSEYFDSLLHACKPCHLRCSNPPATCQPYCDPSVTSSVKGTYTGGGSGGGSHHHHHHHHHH
# Procedure: as §1, §2
# In experiments performed essentially as described above, anti-human BCMA antibodies of the present disclosure bind mouse BCMA with a His tag (ACROBiosystems, Beijing, China, Catalog No.: BCA-M52H3, SEQ ID NO:109) with an EC50 values shown in Table 5.
# [7] = target: T2, BCMA on cells (293T cells transfected …); test: flow cytometry, 293T cells transfected with BCMA, above parental 293T background
Binder,Kd [1] [nM],koff [1] [s⁻¹],kon [1] [M⁻¹ s⁻¹],Positive (%) [2] [%],Mean fluorescent intensity [3],EC50 [4] [mg/L],EC50 [5] [mg/L],EC50 [6] [mg/L],Positive (%) [7] [%]
B1,43.8,0.0358,817000,99.9,2560,0.174,0.00264,0.529,84.4
B2,76.6,0.127,1.66e+06,18.4,102,5.57,0.00196,,16.9
B3,5.01,0.011,2.2e+06,99.9,3480,9.74,0.0017,0.0107,85.7
B4,68.6,0.0175,255000,99.8,2090,0.0057,0.00292,,48.2
B5,4.91,0.00034,69200,99.9,2020,,0.00212,0.0522,94.3
B6,9.49,0.00284,299000,98.2,1070,1.6,0.00346,0.0108,75.1
B7,11.7,0.00263,224000,99.9,3920,,0.00171,0.0791,91.6
B8,9.93,0.000995,100000,96.5,758,,0.00235,0.0295,76.3
B9,5.62,0.0126,2.25e+06,99.9,3790,2.05,0.00232,0.0343,88.9
B10,0.388,0.000113,292000,100,4560,0.0891,0.00286,0.00262,96.3
B11,1.22,0.000374,306000,99.2,1280,0.0433,0.00285,,81.9
B12,32.6,0.034,1.04e+06,96.5,623,,0.00248,0.27,72
